Assay results reported in patent US20250250357A1 (NANJING ZAIMING PHARMACEUTICAL, published 2025).
Where a chain is given by its changes, count along the chain named.

B1: S009-F7.18.10 (antibody, human IgG1, kappa, V domains shown)
VH: QVQLQQSGAELVRPGTSVKVSCKASGYAFTNYLIEWVKQRPGQGLEWIGVINPGSGGTKYNEKFKGKATLTADKSSSTAYMQLSSLTSEDSAVYFCASDYDYDPFAYWGQGTLVTVSA
VL: DIVMTQSHKFMSTSVGDRVSITCKASQDVSTAVAWYQRKPGQSPKLLIYWASTRHTGVPDRFTGSGSGTDYTLTISYMQAEDLALYYCQQHYSTPYTFGGGTKLEIKR
notes: Human-murine chimeric antibody, human IgG1 heavy and kappa light constant regions
B2: S009-F7.26.15 (antibody, human IgG1, kappa, V domains shown)
VH: DVQLQESGPGLVKPSQTVFLTCTVTGISITTGNYRWSWIRQFPGNKLEWIGYIYYTGFITYNPSLTSRTTITRDTPKNQFFLEMKSLTAEDTATYYCARDDYDYDVFAYWGQGTLVTVSA
VL: DIQMTQSPASLSASVGETVTITCRASGNIHNYLAWYHQKQGKSPQFLVYKAKTLADGVPSRFSGSGSGTQYSLKINRLQPEDFGSYYCQHFLSIPLTFGAGTKLELKR
notes: as for B1
B3: S009-F7.44.20 (antibody, human IgG1, kappa, V domains shown)
VH: EVQLQQSGPELVKPGASVKIPCKASGYTFTDYNMDWVKQSHGKSLEWIGDINPSTGGTIYNQKFNGKATLTEDKSASTVYMEFRSLTSDDTAVYYCARRRIGTGYFDVWGTGTTVTVSS
VL: QIVLTQSPALMSASPGEKVTLTCSASSSVISSYLSWYQQKPGSSPKLLIYRTSNLASGVPARFSGSGSGTSYSLTISSMEAEDAASYFCHQWSSFPYTFGGGTKLEIKR
notes: as for B1
B4: S009-F7.53.2 (antibody, human IgG1, kappa, V domains shown)
VH: EVQLQQSGPELVKPGASVKIPCKTSGYTFTDYNMDWVKQSHGKSLEWIGDINPNTDGAIYNQKFQNKATLTVDKSSSTAYMELRSLTSEDTAVYYCTRRKLGRKFFDYWGQGTTLTVSS
VL: QIVLTQSPAIMSASPGEQVTMTCSASSSVGYMNWYQQKPGSSPRLLIYDTSNLASGVPVHFSGSGSGTSYSLTISRMEAAFAATYYCQQWYVYPYTFGGGTKLEIKR
notes: as for B1
B5: S009-F7.41.18 (antibody, human IgG1, kappa, V domains shown)
VH: QVQLQQPGTELVKPGASVKLSCKASDYTFTSYWMHWVKQRPGQGLEWIGSINPSNGDTYYNEKFKNKATLTVDKSSSTAYMQLSSLTSDDSAVYYCARGWYFDVWGTGTTVTVSS
VL: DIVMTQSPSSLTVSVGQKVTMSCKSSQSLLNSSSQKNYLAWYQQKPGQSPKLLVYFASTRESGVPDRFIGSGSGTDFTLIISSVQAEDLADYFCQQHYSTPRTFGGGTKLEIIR
notes: as for B1
B6: S009-F7.23.19 (antibody, human IgG1, kappa, V domains shown)
VH: EVKLVESGGGLVQPGGSLSLSCAASGFTFTDYYMSWVRQPPGKALEWLGFIRSKANAYTTEYSASVKGRFTISRDNSQSILYLQMNDLRAEDSATYYCARYYYYGSGYVWYFDVWGTGTTVTVSS
VL: DIVMTQSQKFMSTSVGDRVSVTCKASQSVGTNVAWYQQKPGQFPKALIYSASYRYSGVPDRFTGSGSGTDFTLTIINVQSEDLAEYFCQQYNSYPLTFGAGTKLELKR
notes: as for B1
B7: S009-F7.33.24 (antibody, human IgG1, kappa, V domains shown)
VH: QVQLQQPGTELVKPGASVKLSCKASGYTFTSYWMHWVKQRPGQGLEWIGNVNPSNGGSNYNEKFKNKATLTVDKSSSTADMQLNSLTSEDSAVYYCAPHYIGSRPGFAYWGQGTLVTVSG
VL: B6 VL with S28N, V33I, F43S, I76T, A100G, L104V, L106I
notes: as for B1
B8: S009-F7.25.19 (antibody, human IgG1, kappa, V domains shown)
VH: QVQLQQPGTELVKPGASVKLSCKASGYTFTSYWMHWVKQRPGQGLEWIGNIIPSNGGTKYNEKFKSKATLTVDKSSSTAYMQLSSLTSEDSAVYYCSPHYYGGSPGFAYWGQGTLITVSA
VL: B6 VL with T22I, S28N, F43S, I76S, A100G, L106I
notes: as for B1
B9: S009-F7.30.5 (antibody, human IgG1, kappa, V domains shown)
VH: B7 VH with G8K, T28I, S31T, S58T, N59M, K65E, N66R, K67R, N84S, A97V
VL: B6 VL with S28N, Q38H, F43S, I48L, I76T, A100G, L106I
notes: as for B1
B10: S009-F7.48.1 (antibody, human IgG1, kappa, V domains shown)
VH: QVQLQQPGTELVKPGASVKLSCKASGYTFTSYWMHWVKQRPGQGLEWIGNINPSNGGTNNNENFKSKATLTVDTSSSTAYMQLSSLTSEDSAVYYCVRNGYHGYWYFDVWGTGTTVTVSS
VL: B6 VL with S28N, K39Q, F43S, G66V, I76S, A100G, L106I
notes: as for B1

molecular target: T1, human MSLN-R2-his protein (human, UniProt Q13421 391-486); test: ELISA on coated antigen, antibody 0.0002 nM
T1 construct: it is put last here; also called human MSLN-R2 protein; hMSLN-R2-his; not shown: His tag
T1 sequence (Q13421 other isoform, or with tags, fused parts or gaps): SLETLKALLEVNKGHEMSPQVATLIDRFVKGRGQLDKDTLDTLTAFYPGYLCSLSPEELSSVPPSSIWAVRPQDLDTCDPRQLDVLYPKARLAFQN

OD450	Binder
0.05 OD	B1
0.05 OD	B2
0.05 OD	B3
0.05 OD	B4
0.07 OD	B5
0.14 OD	B6
0.06 OD	B7
0.05 OD	B8
0.05 OD	B9
0.05 OD	B10

molecular target: T2, human MSLN-R3-his protein (human, UniProt Q13421 487-598); test: ELISA on coated antigen, antibody 0.2 nM
T2 construct: it is put last here; also called human MSLN-R3 protein; hMSLN-R3-his; not shown: His tag
T2 sequence (Q13421 495-606): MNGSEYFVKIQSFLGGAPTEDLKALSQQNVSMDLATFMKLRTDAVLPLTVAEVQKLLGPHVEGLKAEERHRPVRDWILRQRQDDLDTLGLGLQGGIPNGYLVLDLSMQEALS

OD450	Binder
0.06 OD	B1
2.45 OD	B2
2.2 OD	B3
0.5 OD	B4
1.92 OD	B5
1.9 OD	B6
2.7 OD	B7
2.6 OD	B8
2.66 OD	B9
0.94 OD	B10

molecular target: T1, human MSLN-R2-his protein; test: ELISA on coated antigen, antibody 0.2 nM

OD450	Binder
0.06 OD	B1
0.05 OD	B2
0.05 OD	B3
0.05 OD	B4
0.07 OD	B5
0.05 OD	B6
0.06 OD	B7
0.05 OD	B8
0.06 OD	B9
0.05 OD	B10

molecular target: T2, human MSLN-R3-his protein; test: ELISA on coated antigen, antibody 0.002 nM
Description: (§1) The plate was sealed with a plastic film and incubated at 4° C. overnight. The next day, the plate was washed twice with PBST, and a blocking buffer [PBS+2% (w/w) BSA] was added for blocking at room temperature for 2 h. The blocking buffer was discarded, and a chimeric antibody or negative control antibody serially diluted from 100 nM was added at 50 μL/well. After incubation at 37° C. for 2 h, the plate was washed 3 times with PBST. […] After incubation at 37° C. for 2 h, the plate was washed 5 times with PBST. A TMB substrate was added at 50 μL/well for incubation at room temperature for 5-10 min, and then a stop solution (1.0 N HCl) was added at 50 μL/well.

OD450	Binder
0.05 OD	B1
0.6 OD	B2
0.27 OD	B3
0.06 OD	B4
0.12 OD	B5
0.25 OD	B6
1.04 OD	B7
0.9 OD	B8
0.74 OD	B9
0.08 OD	B10

molecular target: T2, human MSLN-R3-his protein; test: ELISA on coated antigen, antibody 20 nM
Description: as §1

OD450	Binder
0.14 OD	B1
2.73 OD	B2
2.48 OD	B3
2.42 OD	B4
2.46 OD	B5
2.63 OD	B6
2.67 OD	B7
2.71 OD	B8
2.84 OD	B9
2.43 OD	B10

molecular target: T2, human MSLN-R3-his protein; test: ELISA on coated antigen, antibody 0.02 nM

OD450	Binder
0.05 OD	B1
1.63 OD	B2
0.9 OD	B3
0.14 OD	B4
0.69 OD	B5
0.88 OD	B6
2.13 OD	B7
1.81 OD	B8
1.7 OD	B9
0.26 OD	B10

molecular target: T1, human MSLN-R2-his protein; test: ELISA on coated antigen, antibody 20 nM
Description: as §1

OD450	Binder
0.09 OD	B1
0.08 OD	B2
0.06 OD	B3
0.06 OD	B4
0.12 OD	B5
0.05 OD	B6
0.04 OD	B7
0.09 OD	B8
0.15 OD	B9
0.07 OD	B10

molecular target: T1, human MSLN-R2-his protein; test: ELISA on coated antigen, antibody 200 nM

OD450	Binder
0.14 OD	B1
0.18 OD	B2
0.1 OD	B3
0.08 OD	B4
0.15 OD	B5
0.09 OD	B6
0.08 OD	B7
0.31 OD	B8
0.5 OD	B9
0.09 OD	B10

molecular target: T1, human MSLN-R2-his protein; test: ELISA on coated antigen, antibody 2 nM

OD450	Binder
0.09 OD	B1
0.05 OD	B2
0.05 OD	B3
0.05 OD	B4
0.11 OD	B5
0.05 OD	B6
0.06 OD	B7
0.06 OD	B8
0.06 OD	B9
0.05 OD	B10

molecular target: T1, human MSLN-R2-his protein; test: ELISA on coated antigen, antibody 0.02 nM
Description: as §1

OD450	Binder
0.05 OD	B1
0.05 OD	B2
0.05 OD	B3
0.05 OD	B4
0.07 OD	B5
0.05 OD	B6
0.06 OD	B7
0.05 OD	B8
0.05 OD	B9
0.05 OD	B10

molecular target: T2, human MSLN-R3-his protein; test: ELISA on coated antigen, antibody 0.0002 nM
Description: as §1

OD450	Binder
0.05 OD	B1
0.16 OD	B2
0.1 OD	B3
0.05 OD	B4
0.07 OD	B5
0.08 OD	B6
0.23 OD	B7
0.3 OD	B8
0.25 OD	B9
0.05 OD	B10

molecular target: T2, human MSLN-R3-his protein; test: ELISA on coated antigen, antibody 2 nM
Description: as §1

OD450	Binder
0.07 OD	B1
2.79 OD	B2
2.46 OD	B3
1.71 OD	B4
2.43 OD	B5
2.52 OD	B6
2.85 OD	B7
2.76 OD	B8
2.75 OD	B9
2.05 OD	B10

molecular target: T1, human MSLN-R2-his protein; test: ELISA on coated antigen, no antibody (blank, column 'none')
Description: as §1

OD450	Binder
0.06 OD	B1
0.06 OD	B2
0.06 OD	B3
0.07 OD	B4
0.08 OD	B5
0.06 OD	B6
0.07 OD	B7
0.06 OD	B8
0.06 OD	B9
0.06 OD	B10

molecular target: T2, human MSLN-R3-his protein; test: as above
Description: as §1

OD450	Binder
0.07 OD	B1
0.07 OD	B2
0.06 OD	B3
0.06 OD	B4
0.06 OD	B5
0.09 OD	B6
0.08 OD	B7
0.07 OD	B8
0.09 OD	B9
0.06 OD	B10

molecular target: T1, human MSLN-R2-his protein; test: ELISA on coated antigen, antibody 0.002 nM
Description: as §1

OD450	Binder
0.05 OD	B1
0.05 OD	B2
0.05 OD	B3
0.05 OD	B4
0.07 OD	B5
0.05 OD	B6
0.06 OD	B7
0.05 OD	B8
0.05 OD	B9
0.05 OD	B10

molecular target: T2, human MSLN-R3-his protein; test: ELISA on coated antigen, antibody 200 nM
Description: as §1

OD450	Binder
0.29 OD	B1
2.74 OD	B2
2.91 OD	B3
2.69 OD	B4
3 OD	B5
2.77 OD	B6
2.84 OD	B7
2.83 OD	B8
2.71 OD	B9
2.69 OD	B10
